Earlier results, collected in PMC11431639.

What was measured:
INF2 DAD (Homo sapiens) = INF2 DAD (Homo sapiens) (UniProt Q27J81)
mDia1 DAD (Mus musculus) = mDia1 DAD (Mus musculus) (UniProt O08808)
Chain of mDia1 DAD (Mus musculus) (O08808 1174-1208): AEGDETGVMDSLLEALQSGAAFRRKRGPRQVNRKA

Chain of mDia1 DID (O08808 129-369): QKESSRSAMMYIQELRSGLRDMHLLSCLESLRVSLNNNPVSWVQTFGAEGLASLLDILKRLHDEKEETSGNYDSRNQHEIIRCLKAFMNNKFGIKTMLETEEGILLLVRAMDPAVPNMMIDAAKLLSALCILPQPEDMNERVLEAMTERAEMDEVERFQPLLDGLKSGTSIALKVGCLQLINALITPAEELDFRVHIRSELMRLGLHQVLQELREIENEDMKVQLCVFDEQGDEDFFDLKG
Chain of INF2 DAD (Homo sapiens) (Q27J81 971-1000): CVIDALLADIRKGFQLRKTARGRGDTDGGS
Chain of INF2 DID (Q27J81 32-261): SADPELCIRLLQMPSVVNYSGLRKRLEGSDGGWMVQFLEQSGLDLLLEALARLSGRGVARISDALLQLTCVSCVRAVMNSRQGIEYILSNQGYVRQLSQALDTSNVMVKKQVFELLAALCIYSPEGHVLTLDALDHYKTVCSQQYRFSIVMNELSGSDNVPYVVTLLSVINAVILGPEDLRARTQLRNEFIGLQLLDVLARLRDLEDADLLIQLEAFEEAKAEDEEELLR

Row | Kd (INF2 DAD (Homo sapiens)) [nM] | Kd (mDia1 DAD (Mus musculus)) [nM] | Substance
1 | 1100 | – | INF2 DID (from UniProt Q27J81)
2 | – | 280 | mDia1 DID (from UniProt O08808)
